# Laboratory results: PMC5040961
# T1: FLAG-tagged Lgl1 (Lethal giant larvae 1), Q80Y17
# T1 chain: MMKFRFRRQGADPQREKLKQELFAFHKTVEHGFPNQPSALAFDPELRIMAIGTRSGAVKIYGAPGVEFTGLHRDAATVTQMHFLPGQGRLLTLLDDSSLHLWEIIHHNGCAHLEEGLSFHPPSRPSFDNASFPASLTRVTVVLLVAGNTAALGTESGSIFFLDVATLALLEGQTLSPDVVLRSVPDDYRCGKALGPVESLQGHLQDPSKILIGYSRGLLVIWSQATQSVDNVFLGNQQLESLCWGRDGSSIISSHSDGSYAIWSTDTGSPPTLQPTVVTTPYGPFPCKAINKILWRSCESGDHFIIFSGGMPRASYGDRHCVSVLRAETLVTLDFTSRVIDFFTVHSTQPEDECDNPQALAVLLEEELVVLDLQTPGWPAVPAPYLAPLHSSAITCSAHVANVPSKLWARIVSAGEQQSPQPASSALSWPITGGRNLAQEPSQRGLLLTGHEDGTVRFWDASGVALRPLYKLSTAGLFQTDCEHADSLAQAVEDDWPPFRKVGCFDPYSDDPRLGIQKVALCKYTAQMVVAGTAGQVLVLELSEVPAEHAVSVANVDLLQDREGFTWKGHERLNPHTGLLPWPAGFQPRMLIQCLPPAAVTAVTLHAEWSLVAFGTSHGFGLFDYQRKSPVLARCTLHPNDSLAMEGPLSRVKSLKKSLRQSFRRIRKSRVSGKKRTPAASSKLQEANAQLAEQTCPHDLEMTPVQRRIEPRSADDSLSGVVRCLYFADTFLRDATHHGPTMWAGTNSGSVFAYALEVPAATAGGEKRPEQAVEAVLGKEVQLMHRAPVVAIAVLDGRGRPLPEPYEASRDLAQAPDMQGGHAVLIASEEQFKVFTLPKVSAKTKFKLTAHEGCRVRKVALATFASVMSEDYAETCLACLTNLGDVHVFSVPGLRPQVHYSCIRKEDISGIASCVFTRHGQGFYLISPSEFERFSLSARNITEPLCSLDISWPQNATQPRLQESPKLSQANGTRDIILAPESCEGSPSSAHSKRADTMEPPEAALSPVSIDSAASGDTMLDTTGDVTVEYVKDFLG
# B1: HA-PKCζ-wt, Q05513 K225R; K284R; K378R (protein)
# chain: MPSRTGPKMEGSGGRVRLKAHYGGDIFITSVDAATTFEELCEEVRDMCRLHQQHPLTLKWVDSEGDPCTVSSQMELEEAFRLARQCRDEGLIIHVFPSTPEQPGLPCPGEDKSIYRRGARRWRKLYRANGHLFQAKRFNRRAYCGQCSERIWGLARQGYRCINCKLLVHKRCHGLVPLTCRKHMDSVMPSQEPPVDDKNEDADLPSEETDGIAYISSSRKHDSIRDDSEDLKPVIDGMDGIKISQGLGLQDFDLIRVIGRGSYAKVLLVRLKKNDQIYAMKVVRKELVHDDEDIDWVQTEKHVFEQASSNPFLVGLHSCFQTTSRLFLVIEYVNGGDLMFHMQRQRKLPEEHARFYAAEICIALNFLHERGIIYRDLRLDNVLLDADGHIKLTDYGMCKEGLGPGDTTSTFCGTPNYIAPEILRGEEYGFSVDWWALGVLMFEMMAGRSPFDIITDNPDMNTEDYLFQVILEKPIRIPRFLSVKASHVLKGFLNKDPKERLGCRPQTGFSDIKSHAFFRSIDWDLLEKKQALPPFQPQITDDYGLDNFDTQFTSEPVQLTPDDEDAIKRIDQSEFEGFEYINPLLLSTEESV
# Target: T1, FLAG-tagged Lgl1 (Lethal giant larvae …)
# Assay: co-immunoprecipitation (FLAG IP, western blot with HA and FLAG antibodies, quantified)
# Details: chain shown with the change; HEK293T cell lysates; n = 3; parent: est. 1.0; read off a plot
binder,measurement,value
B1,ratio to parent,2.4
